Source: patent US20200354457A1

Legend:
[1] = biological target: Lag3 on cynomolgus PBMC/T cells (cynomolgus); experiment: flow cytometry, non-activated cynomolgus PBMC, 10 µg/ml
[2] = biological target: Lag3 on cynomolgus PBMC/T cells (cynomolgus); experiment: flow cytometry, CD3/CD28-activated cynomolgus PBMC, 10 µg/ml
[3] = biological target: Lag3 on Lag3+ NFAT Jurkat effector cells (Promega #CS194801); experiment: cell-based or functional assay
[4] = biological target: cynomolgus LAG3 on transiently transfected HEK293F cells (cynomolgus); experiment: flow cytometry on HEK293F cells transfected with cyno LAG3, 10 µg/ml

control antibody MDX25F7, sequence (VH): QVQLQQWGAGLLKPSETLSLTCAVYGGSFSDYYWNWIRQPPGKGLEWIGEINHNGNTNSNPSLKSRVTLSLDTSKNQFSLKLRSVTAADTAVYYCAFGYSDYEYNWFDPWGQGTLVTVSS
control antibody MDX25F7, sequence (VL): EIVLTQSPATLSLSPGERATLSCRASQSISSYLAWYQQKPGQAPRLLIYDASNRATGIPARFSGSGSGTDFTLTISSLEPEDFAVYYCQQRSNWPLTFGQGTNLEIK

Percentage of Lag3 positive cells [1] [%] | Percentage of Lag3 positive cells [2] [%] | EC50 of restoration of the NFAT luciferase signal (NFAT Lag3 reporter assay: Lag3+ Jurkat, Raji cells, SED) [3] [mg/L] | IC50 for near-complete reduction of luciferase activity (modified NFAT Lag3 reporter assay, Lag3+ Jurkat cells alone) [3] [mg/L] | LAG3 positive cells (%) [4] [%] | Signal intensity (Geo Mean) [4] [Geo Mean] | Substance
10.1 | 18.6 |  |  |  |  | BMS-986016 (antibody)
11.3 | 22.1 | 1.29 | 0.033 | 48.2 | 1560 | control antibody MDX25F7
2.5 | 9.19 |  |  |  |  | DP47 (human isotype control) (antibody)
